Reference: IntAct's records for PubMed 14638859

B1: ADP-ribosylation factor-binding protein GGA1 (Homo sapiens), Q9UJY5 (parent)
chain: MEPAMEPETLEARINRATNPLNKELDWASINGFCEQLNEDFEGPPLATRLLAHKIQSPQEWEAIQALTVLETCMKSCGKRFHDEVGKFRFLNELIKVVSPKYLGSRTSEKVKNKILELLYSWTVGLPEEVKIAEAYQMLKKQGIVKSDPKLPDDTTFPLPPPRPKNVIFEDEEKSKMLARLLKSSHPEDLRAANKLIKEMVQEDQKRMEKISKRVNAIEEVNNNVKLLTEMVMSHSQGGAAAGSSEDLMKELYQRCERMRPTLFRLASDTEDNDEALAEILQANDNLTQVINLYKQLVRGEEVNGDATAGSIPGSTSALLDLSGLDLPPAGTTYPAMPTRPGEQASPEQPSASVSLLDDELMSLGLSDPTPPSGPSLDGTGWNSFQSSDATEPPAPALAQAPSMESRPPAQTSLPASSGLDDLDLLGKTLLQQSLPPESQQVRWEKQQPTPRLTLRDLQNKSSSCSSPSSSATSLLHTVSPEPPRPPQQPVPTELSLASITVPLESIKPSNILPVTVYDQHGFRILFHFARDPLPGRSDVLVVVVSMLSTAPQPIRNIVFQSAVPKVMKVKLQPPSGTELPAFNPIVHPSAITQVLLLANPQKEKVRLRYKLTFTMGDQTYNEMGDVDQFPPPETWGSL
partner: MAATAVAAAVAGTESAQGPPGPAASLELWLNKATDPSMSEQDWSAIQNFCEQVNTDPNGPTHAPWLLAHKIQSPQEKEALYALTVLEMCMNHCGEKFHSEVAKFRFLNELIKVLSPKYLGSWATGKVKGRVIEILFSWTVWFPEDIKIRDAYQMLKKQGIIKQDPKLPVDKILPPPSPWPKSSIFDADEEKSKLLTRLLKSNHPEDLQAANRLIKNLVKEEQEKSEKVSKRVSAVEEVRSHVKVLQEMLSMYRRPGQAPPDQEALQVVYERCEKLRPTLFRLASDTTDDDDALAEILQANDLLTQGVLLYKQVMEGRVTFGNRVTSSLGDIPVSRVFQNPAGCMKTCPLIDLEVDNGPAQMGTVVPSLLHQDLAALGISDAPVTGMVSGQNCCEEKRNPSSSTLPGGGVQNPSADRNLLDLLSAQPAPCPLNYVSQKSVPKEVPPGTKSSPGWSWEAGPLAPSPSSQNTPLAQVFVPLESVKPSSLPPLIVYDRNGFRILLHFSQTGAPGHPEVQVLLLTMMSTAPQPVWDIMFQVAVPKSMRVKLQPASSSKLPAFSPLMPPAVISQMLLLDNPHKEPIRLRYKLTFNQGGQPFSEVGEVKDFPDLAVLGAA

Variants of: B1
Conditions: with gga2_human GGA2, Q9UJY4

**Q.** With D358A as the variant, how does the “effect of a mutation on the interaction” value read?
**A.** with no effect
